Laboratory results taken from PMC12305242, “Native Top–Down Analysis of Membrane Protein Complexes Directly From In Vitro and Native Membranes” (Molecular & Cellular Proteomics : MCP, 2025).

Assays:
[1] = molecular target: T1, β-barrel–assembly machinery (BAM) complex (Escherichia coli, UniProt P0A940); assay: native MS of membrane vesicles, complex-up (HCD) of bound species; format: binding; settings: 100 uM MRL-494, 1 h on ice, native E. coli membrane vesicles; bound to the complex, subunit not resolved
T1 construct: gene bamA; endogenous, untagged heteropentamer BAM-ABCDE, lipidated proteoforms, about 199 kDa, ejected from native E. coli BL21 membrane vesicles; with Outer membrane protein assembly factor BamB; Outer membrane protein assembly factor BamC; Outer membrane protein assembly factor BamD; Outer membrane protein assembly factor BamE

[2] = molecular target: T2, dihydrolipoyl dehydrogenase (DLDH) (Escherichia coli, UniProt P0A9P0); assay: native MS complex-up (HCD), mass shift of ejected monomer; format: binding; settings: endogenous ligand, native E. coli membrane vesicles; ligand identified by added mass and database search
T2 construct: gene lpdA; endogenous, untagged, ejected from native E. coli BL21 membrane vesicles
T2 sequence (P0A9P0 2-474): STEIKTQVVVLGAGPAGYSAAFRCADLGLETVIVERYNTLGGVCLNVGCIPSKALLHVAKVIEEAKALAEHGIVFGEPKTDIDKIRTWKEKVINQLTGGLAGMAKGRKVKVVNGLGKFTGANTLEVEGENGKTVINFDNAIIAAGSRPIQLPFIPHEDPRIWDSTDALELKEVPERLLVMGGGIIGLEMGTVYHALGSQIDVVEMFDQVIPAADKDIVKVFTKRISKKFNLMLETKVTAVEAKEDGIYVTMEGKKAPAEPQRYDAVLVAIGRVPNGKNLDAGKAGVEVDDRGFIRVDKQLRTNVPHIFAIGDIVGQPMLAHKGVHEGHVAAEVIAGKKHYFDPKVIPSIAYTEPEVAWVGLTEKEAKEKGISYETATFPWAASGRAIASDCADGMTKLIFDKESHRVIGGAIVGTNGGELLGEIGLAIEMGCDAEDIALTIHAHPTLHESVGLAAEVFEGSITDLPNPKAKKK

[3] = molecular target: the molecule itself; assay: native MS; endogenous complexes ejected from E. coli BL21 native membrane vesicles (500 mM NH4Ac, 300 ug/ml protein, 5% (v/v) glycerol as supercharger), in-source activation; quadrupole isolation and complex-up analysis by HCD/CID; no detergent
[4] = molecular target: the molecule itself; assay: native MS; purified protein reconstituted into proteoliposomes (E. coli Polar Lipid Extract, 200 mM NH4Ac), 0.1% (v/v) 3-nitrobenzyl alcohol as supercharger, ejected by in-source activation; protein 2 to 10 uM; Q Exactive UHMR
AqpZ, P60844 = molecular target: T3, AqpZ, P60844; assay: as above; settings: remark: other sources report otherwise
T3 chain: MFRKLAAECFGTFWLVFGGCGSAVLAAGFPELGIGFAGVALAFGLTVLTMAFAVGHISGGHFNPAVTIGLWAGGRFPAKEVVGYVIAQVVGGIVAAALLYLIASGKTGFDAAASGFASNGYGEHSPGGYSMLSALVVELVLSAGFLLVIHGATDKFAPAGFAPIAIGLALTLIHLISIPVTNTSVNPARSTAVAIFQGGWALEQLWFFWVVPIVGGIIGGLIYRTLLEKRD

With `NC(N)=NC(=O)CC(Nc1nc(N=C(N)N)nc(NC2CCC(NC(=O)Cn3nnc(-c4ccc(F)cc4)n3)CC2)n1)C1CC1` (centres unmarked) [MRL-494] as the molecule, how does the “native MS of membrane vesicles, complex-up (HCD) of bound species” value [1] read?
Its value is “The results provide direct evidence for MRL-494 BAM complex interaction”.

Which “native MS complex-up (HCD), mass shift of ejected monomer” value [2] does the source give for `Cc1cc2nc3c(=O)[nH]c(=O)nc-3n(C[C@H](O)[C@H](O)[C@H](O)COP(=O)(O)OP(=O)(O)OC[C@H]3O[C@@H](n4cnc5c(N)ncnc54)[C@H](O)[C@@H]3O)c2cc1C` [flavin adenine dinucleotide] here?
The value was “identified the ligand as flavin adenine dinucleotide, an endogenous cofactor of DLDH”.

B1: dihydrolipoyl dehydrogenase (enzyme, UniProt P0A9P0 1-474, looked up)
chain: MSTEIKTQVVVLGAGPAGYSAAFRCADLGLETVIVERYNTLGGVCLNVGCIPSKALLHVAKVIEEAKALAEHGIVFGEPKTDIDKIRTWKEKVINQLTGGLAGMAKGRKVKVVNGLGKFTGANTLEVEGENGKTVINFDNAIIAAGSRPIQLPFIPHEDPRIWDSTDALELKEVPERLLVMGGGIIGLEMGTVYHALGSQIDVVEMFDQVIPAADKDIVKVFTKRISKKFNLMLETKVTAVEAKEDGIYVTMEGKKAPAEPQRYDAVLVAIGRVPNGKNLDAGKAGVEVDDRGFIRVDKQLRTNVPHIFAIGDIVGQPMLAHKGVHEGHVAAEVIAGKKHYFDPKVIPSIAYTEPEVAWVGLTEKEAKEKGISYETATFPWAASGRAIASDCADGMTKLIFDKESHRVIGGAIVGTNGGELLGEIGLAIEMGCDAEDIALTIHAHPTLHESVGLAAEVFEGSITDLPNPKAKKK
notes: dihydrolipoyl dehydrogenase (DLDH, gene lpdA), E. coli BL21, endogenous peripheral membrane protein; also called DLDH; lpdA; source: endogenous, E. coli BL21 membrane vesicles (N2 cavitation)
B1 was tested. Which “stoichiometry N” value [3] did it give?
Its value is 2.

B2: semiSWEET (natural protein)
chain: MALIERIGKALEPLMLVMGLISPLATMPQLYKLYVSHSEHALGLSLTTWLLYSFIALLWTIYGIYHKNPTIWVGNCLGFLMYVAMVVGIIAHTGGTY
With B2 as the molecule, how does the “stoichiometry N” value [4] read?
The value was 2.

B3: AqpZ, P60844 1-231 (natural protein)
chain: T3 chain
For B3, which stoichiometry N (AqpZ, P60844) is on record?
Its stoichiometry N is 4.
